# Experimental data from publication PMC4042526.
# Target: Tbx20^eh1mut-EGFP (mouse) (UniProt Q9ES03)
# Experiment: affinity purification with mass spectrometry
# Chain of UniProt Q9ES03 (Q9ES03 whole entry F18L/S19I): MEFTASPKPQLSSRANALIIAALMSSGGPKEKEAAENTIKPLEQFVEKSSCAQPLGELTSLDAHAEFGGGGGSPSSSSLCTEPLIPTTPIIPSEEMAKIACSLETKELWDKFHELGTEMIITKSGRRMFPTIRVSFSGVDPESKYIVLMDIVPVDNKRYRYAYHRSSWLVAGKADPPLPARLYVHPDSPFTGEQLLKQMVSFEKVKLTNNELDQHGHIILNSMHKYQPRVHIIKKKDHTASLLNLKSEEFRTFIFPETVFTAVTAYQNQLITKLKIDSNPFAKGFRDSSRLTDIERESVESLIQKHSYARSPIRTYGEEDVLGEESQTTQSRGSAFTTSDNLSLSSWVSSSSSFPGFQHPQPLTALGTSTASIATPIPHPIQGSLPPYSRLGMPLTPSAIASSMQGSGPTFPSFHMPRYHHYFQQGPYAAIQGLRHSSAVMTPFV
row,fold decrease in eh1mut against wild-type Tbx20 (MS1-based),Substance
1,> 10 fold,Transducin-like enhancer of split 1 (from UniProt Q04724 1-770) (natural protein)
2,> 10 fold,Transducin-like enhancer of split 3 (from UniProt Q04726 1-772) (natural protein)
